Assay results taken from article PMC10076285, “Oncogenic CALR mutant C-terminus mediates dual binding to the thrombopoietin receptor triggering complex dimerization and activation” (Nature Communications, 2023).

Target: T1, Recombinant human TpoR extracellular domain D1-D4 with mature N-glycans (human, UniProt P40238 26-489, mature N-glycans (4 N-glycans on the ECD))
T1 construct: thrombopoietin receptor (TpoR), human, extracellular domain D1-D4, starts at Q26 and ends at T489; details in Supplementary Methods; also called TpoR D1-D4; hTpoR D1-D4; source: Schneider S2 cells, purified; not shown: His tag, C-terminal, kept
T1 sequence (looked up): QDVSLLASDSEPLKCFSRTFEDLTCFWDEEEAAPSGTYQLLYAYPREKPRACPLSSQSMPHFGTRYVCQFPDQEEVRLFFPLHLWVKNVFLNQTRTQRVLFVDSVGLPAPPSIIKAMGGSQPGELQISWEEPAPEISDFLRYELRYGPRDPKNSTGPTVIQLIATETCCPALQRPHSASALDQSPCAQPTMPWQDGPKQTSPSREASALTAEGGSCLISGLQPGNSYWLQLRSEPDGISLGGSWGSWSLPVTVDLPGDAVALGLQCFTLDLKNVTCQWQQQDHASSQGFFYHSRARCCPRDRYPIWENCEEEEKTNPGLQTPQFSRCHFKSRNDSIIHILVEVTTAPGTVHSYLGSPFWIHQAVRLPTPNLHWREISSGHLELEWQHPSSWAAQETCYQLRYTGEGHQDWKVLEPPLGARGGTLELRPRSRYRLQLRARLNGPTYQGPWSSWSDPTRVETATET
Assay: MST; CALR del52 labelled with RED-NHS at 20 nM; label-free TpoR D1-D4 titrated 0.15 nM to 5 μM; Tris-based MST buffer with 0.01% Tween 20; Monolith NT.115, 40% LED, medium MST power
Conditions: both partners purified

Kd: ~0.104 µM
B1: Recombinant human CALR del52 (natural protein)
chain: EPAVYFKEQFLDGDGWTSRWIESKHKSDFGKFVLSSGKFYGDEEKDKGLQTSQDARFYALSASFEPFSNKGQTLVVQFTVKHEQNIDCGGGYVKLFPNSLDQTDMHGDSEYNIMFGPDICGPGTKKVHVIFNYKGKNVLINKDIRSKDDEFTHLYTLIVRPDNTYEVKIDNSQVESGSLEDDWDFLPPKKIKDPDASKPEDWDERAKIDDPTDSKPEDWDKPEHIPDPDAKKPEDWDEEMDGEWEPPVIQNPEYKGEWKPRQIDNPDYKGTWIHPEIDNPEYSPDPSIYAYDNFGVLGLDLWQVKSGTIFDNFLITNDEAYAEEFGNETWGVTKAAEKQMKDKQDEEQRTRRMMRTKMRMRRMRRTRRKMRRKMSPARPRTSCREACLQGWTEA
modifications: RED-NHS dye on lysines (in the MST experiment only)
